Paper PMC10558455, “Rab41-mediated ESCRT machinery repairs membrane rupture by a bacterial toxin in xenophagy” (Nature Communications, 2023)

Target: T1, streptolysin O (SLO) secreted by Group A Streptococcus strain JRS4 (Streptococcus pyogenes JRS4 (serotype …, UniProt Q5XE40))
T1 construct: also called GAS pore-forming toxin; bacterial cytolysin
Assay: co-IP
Conditions: partners not purified

B1: STAND-HS1 (anti-SLO intrabody) (scFv, V domains shown)
VH: EVQLQESGPSLVKPSQTLSLTCSVTGDSITSGYWNWIRKFPGNKFEYMGYISYGDSTYYNPSLKSRISITRDTSKNQYYLQLNSVTTEDTATYYCARLGNDYNWYFDVWGAGTTVTVSS
VL: DIQMNQSPSSLSASLGDTITITCHASQNINVWLSWYQQKPGNIPKLLIFKASNLYTGVPSRFSGSGSGTGFTLTISSLQPEDIATYYCQQGQTYPLTFGGGTKL
notes: also called anti-SLO scFv; anti-SLO intracellular antibody; not shown: 3xFLAG, N-terminal, kept
Does B1 bind?
Result: binds
